# T1: glycoprotein hormone beta 5 (GPHB5), human, beta subunit of CGH (human, UniProt Q86YW7 25-130)
# T1 construct: Secreted from CHO 180 cells
# T1 sequence: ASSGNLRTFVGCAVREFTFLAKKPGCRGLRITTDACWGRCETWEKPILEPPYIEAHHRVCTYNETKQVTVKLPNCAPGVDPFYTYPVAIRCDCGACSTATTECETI
# B1: corticotroph-derived glycoprotein hormone (CGH), human recombinant, non-covalent heterodimer of GPHA2 and GPHB5 (ligand)
# chain 1: QEAVIPGCHLHPFNVTVRSDRQGTCQGSHVAQACVGHCESSAFPSRYSVLVASGYRHNITSVSQCCTISGLKKVKVQLQCVGSRREELEIFTARACQCDMCRLSRY
# chain 2: T1 sequence
# B2: glycoprotein hormone alpha2 (GPHA2), human, alpha subunit of CGH (ligand)
# chain: B1 chain 1
# notes: Secreted from CHO 180 cells; also called Zsig51
# What was measured:
# [1] = target: TSH receptor (TSHR) on differentiated murine 3T3 L1 adipocytes (murine, UniProt P47750 22-764); assay: cell-based or functional assay
# Chain of TSH receptor (TSHR) on differentiated murine 3T3 L1 adipocytes (P47750 22-764): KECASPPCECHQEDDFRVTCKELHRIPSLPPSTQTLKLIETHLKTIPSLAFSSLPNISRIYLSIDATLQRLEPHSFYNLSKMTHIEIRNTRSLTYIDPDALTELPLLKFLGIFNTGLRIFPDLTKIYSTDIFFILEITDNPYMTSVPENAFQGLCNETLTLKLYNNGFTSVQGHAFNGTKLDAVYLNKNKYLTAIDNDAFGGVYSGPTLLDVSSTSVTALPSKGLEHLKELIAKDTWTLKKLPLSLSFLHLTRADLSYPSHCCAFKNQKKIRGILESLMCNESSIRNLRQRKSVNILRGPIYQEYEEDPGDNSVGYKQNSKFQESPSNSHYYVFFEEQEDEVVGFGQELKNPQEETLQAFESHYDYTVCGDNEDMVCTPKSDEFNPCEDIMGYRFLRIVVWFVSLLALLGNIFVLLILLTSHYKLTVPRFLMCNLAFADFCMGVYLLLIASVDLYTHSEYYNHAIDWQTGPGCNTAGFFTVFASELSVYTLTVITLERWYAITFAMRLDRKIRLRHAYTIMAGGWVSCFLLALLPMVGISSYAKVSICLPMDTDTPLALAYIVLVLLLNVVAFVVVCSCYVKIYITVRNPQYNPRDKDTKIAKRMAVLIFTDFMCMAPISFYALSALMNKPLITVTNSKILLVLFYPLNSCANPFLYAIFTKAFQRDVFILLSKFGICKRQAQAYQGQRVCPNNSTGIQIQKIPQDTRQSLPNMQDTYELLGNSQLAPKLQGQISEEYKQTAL
# [2] = target: TSH receptor (TSHR) on primary human adipocytes (human, UniProt P16473 21-764); assay: cell-based or functional assay
# Chain of TSH receptor (TSHR) on primary human adipocytes (P16473 21-764): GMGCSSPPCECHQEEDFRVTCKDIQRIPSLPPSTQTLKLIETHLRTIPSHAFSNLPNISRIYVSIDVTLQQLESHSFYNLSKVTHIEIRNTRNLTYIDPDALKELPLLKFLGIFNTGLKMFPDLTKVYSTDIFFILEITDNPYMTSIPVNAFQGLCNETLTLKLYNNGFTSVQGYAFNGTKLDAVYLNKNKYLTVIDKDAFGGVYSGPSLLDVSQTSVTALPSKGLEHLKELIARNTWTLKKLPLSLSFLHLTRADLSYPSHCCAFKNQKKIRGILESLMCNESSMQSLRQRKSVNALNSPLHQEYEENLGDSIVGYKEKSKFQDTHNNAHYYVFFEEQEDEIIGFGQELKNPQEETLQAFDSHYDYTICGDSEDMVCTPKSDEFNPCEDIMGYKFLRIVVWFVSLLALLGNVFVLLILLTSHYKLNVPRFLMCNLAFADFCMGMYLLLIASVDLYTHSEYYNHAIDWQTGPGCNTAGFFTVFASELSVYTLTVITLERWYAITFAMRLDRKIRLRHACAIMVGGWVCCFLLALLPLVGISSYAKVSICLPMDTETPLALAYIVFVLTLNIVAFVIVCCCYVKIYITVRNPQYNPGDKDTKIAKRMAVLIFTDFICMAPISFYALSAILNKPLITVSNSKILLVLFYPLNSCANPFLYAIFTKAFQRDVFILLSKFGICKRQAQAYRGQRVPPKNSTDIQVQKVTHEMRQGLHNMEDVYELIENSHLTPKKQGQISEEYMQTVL
# [3] = target: T1, glycoprotein hormone beta 5 (GPHB5), …; assay: co-expression in CHO cells; secreted heterodimer
binder,measurement,setting,value
B1,"induction of luciferase expression (CRE-luciferase reporter, cAMP)",[1],27 fold
same,"induction of the reporter gene (CRE-luciferase reporter, cAMP)",[2],14 fold
B2,binding result,[3],binds
